From patent publication US20260000764A1 (CITY OF HOPE, published 2026)
Numbering of substitutions follows the chain as printed.

Assays:
[1] = target: T1, Biotinylated recombinant human IL-13Rα1 ectodomain with C-terminal biotin acceptor peptide and hexahistidine … (human, UniProt P78552 22-343, biotin on the biotin acceptor peptide (coexpressed with BirA ligase)); assay: SPR, IL-13Rα1 immobilized on the chip, IL-13 C4 flowed; panel titled IL-13C4/IL-13Rα1; Kon and Koff cells empty
T1 construct: extracellular domain; also called recombinant IL13Rα1; biotinylated IL13Rα1
T1 sequence: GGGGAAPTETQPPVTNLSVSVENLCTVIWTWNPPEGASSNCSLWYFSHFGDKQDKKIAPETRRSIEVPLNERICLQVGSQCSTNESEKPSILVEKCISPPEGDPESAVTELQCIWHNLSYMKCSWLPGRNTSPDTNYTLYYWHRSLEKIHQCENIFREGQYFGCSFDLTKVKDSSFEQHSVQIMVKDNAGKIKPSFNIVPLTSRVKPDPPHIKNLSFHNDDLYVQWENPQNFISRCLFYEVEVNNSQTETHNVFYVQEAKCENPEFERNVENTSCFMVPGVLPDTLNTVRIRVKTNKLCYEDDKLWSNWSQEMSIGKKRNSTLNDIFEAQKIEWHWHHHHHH
Text: (§1) FIG. 2A-2F: IL-13Rα1 and IL-13Rα2 binding affinities of the IL-13 variant. (A-C) Surface plasmon resonance measurements of IL-13, IL-13 D7 and IL-13 C4 for IL-13Rα1. IL-13Rα1 was immobilized on the surface of the chip and the indicated doses of IL-13 or the two IL-13 mutants were flowed. (D-F) Surface plasmon resonance measurements of IL-13,IL-13 D7 and IL-13 C4 for IL-13Rα2. IL-13Rα2 was immobilized on the surface of the chip and the indicated doses of IL-13 or the two IL-13 mutants were flowed.
(§2) SPR experiments were conducted on a Biacore T100 instrument using a Biacore SA sensor chip (GE Healthcare). Biotinylated IL-13Rα1/IL-13Rα2 was captured at a low density (50-100 response units (RU)) and kinetics measurements were conducted at 30 μL/min. An unrelated biotinylated protein was immobilized as a reference surface for the SA sensor chip with matching RU to the experimental surface. All measurements were made using 3-fold serial dilutions of IL-13 agonists in the running buffer (1×HBS-P, 0.1% BSA). The IL-13Rα1/IL-13Rα2 bound to the chip surface was regenerated with 7 mM glycine (pH 3.0) and 250 mM NaCl. Kinetic parameters were determined using 120 s to 190 s of IL-13 agonist association time and 20 s to 1200 s dissociation time. All data fitting was performed using the Biacore T100 evaluation software version 2.0 with a 1:1 Langmuir binding model.

[2] = target: T2, Biotinylated recombinant human IL-13Rα2 ectodomain with C-terminal biotin acceptor peptide and hexahistidine … (human, UniProt Q14627 27-343, biotin on the biotin acceptor peptide (coexpressed with BirA ligase)); assay: SPR, IL-13Rα2 immobilized on the chip, IL-13 C4 flowed; panel titled IL-13C4/IL-13Rα2
T2 construct: extracellular domain; also called recombinant IL13Rα2; biotinylated IL13Rα2
T2 sequence: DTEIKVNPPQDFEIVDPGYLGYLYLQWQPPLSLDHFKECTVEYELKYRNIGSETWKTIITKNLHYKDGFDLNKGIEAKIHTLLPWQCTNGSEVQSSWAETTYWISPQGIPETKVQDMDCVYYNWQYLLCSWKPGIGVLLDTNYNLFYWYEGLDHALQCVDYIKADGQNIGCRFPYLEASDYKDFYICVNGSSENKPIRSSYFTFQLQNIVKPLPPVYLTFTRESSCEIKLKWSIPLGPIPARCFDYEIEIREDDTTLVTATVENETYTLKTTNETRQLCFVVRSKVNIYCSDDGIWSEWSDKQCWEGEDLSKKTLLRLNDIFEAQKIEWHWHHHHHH
Text: as §1, §2

[3] = target: T1, Biotinylated recombinant human IL-13Rα1 …; assay: SPR (Biacore T100), biotinylated IL-13Rα1 captured on SA chip, IL-13 C4 flowed; Ka and Kd cells are empty
Protocol: as §2

[4] = target: T1, Biotinylated recombinant human IL-13Rα1 …; assay: SPR; ratio column of the drawn table, IL13Rα1
Text: as §1, §2

[5] = target: T2, Biotinylated recombinant human IL-13Rα2 …; assay: SPR, Biacore T100, biotinylated receptor captured on SA chip, cytokine flowed, 1:1 Langmuir fit
Protocol: as §2

[6] = target: T2, Biotinylated recombinant human IL-13Rα2 …; assay: SPR; ratio of the affinities for IL13Rα2 and IL13Rα1 (reference: IL13Rα1)
Protocol: as §2

[7] = target: T2, Biotinylated recombinant human IL-13Rα2 …; assay: SPR (Biacore T100), biotinylated IL-13Rα2 captured on SA chip, IL-13 C4 flowed, 1:1 Langmuir fit
Text: as §1, §2

[8] = target: T2, Biotinylated recombinant human IL-13Rα2 …; assay: SPR (Biacore T100), biotinylated IL-13Rα2 captured on SA chip, IL-13 D7 flowed, 1:1 Langmuir fit
Protocol: as §2

[9] = target: T1, Biotinylated recombinant human IL-13Rα1 …; assay: SPR (Biacore T100), biotinylated IL-13Rα1 captured on SA chip, IL-13 D7 flowed; Ka and Kd cells are empty
Protocol: as §2

[10] = target: T1, Biotinylated recombinant human IL-13Rα1 …; assay: SPR, IL-13Rα1 immobilized on the chip, IL-13 D7 flowed; panel titled IL-13D7/IL-13Rα1; Kon and Koff cells empty
Text: as §1, §2

[11] = target: T2, Biotinylated recombinant human IL-13Rα2 …; assay: SPR, IL-13Rα2 immobilized on the chip, IL-13 D7 flowed; panel titled IL-13D7/IL-13Rα2
Text: as §1, §2

B1: IL13 C4 variant, soluble recombinant protein with C-terminal hexahistidine tag (ligand)
chain: GPVPPSTAVRELIEELVNITQNQKAPLCNGSMVWSINLTAGMYCAALESLINVSGCSAIEKTQRMLSGFCPHKVSAGQFSSLHVRDTRIEVAQFVKDLLNHLKELFTEGQFNHHHHHH
notes: also called C4 mutein
[1]
  Kd: 36 µM
[2]
  koff: 0.000764 s⁻¹
  kon: 1.94e+06 M⁻¹ s⁻¹
[3]
  Kd: 36 µM
[4]
  KDwt/KD mut: 8200
[5]
  Kd: 0.393 nM
[6]
  fold stronger affinity for IL13Rα2 relative to IL13Rα1: 92000 fold
[7]
  koff: 0.000764 s⁻¹
  kon: 1.94e+06 M⁻¹ s⁻¹

B2: IL13 D7 variant, soluble recombinant protein with C-terminal hexahistidine tag (ligand)
chain: B1 chain with V9A, V17F, Q63K, S80P, R85K, D86K, N100I, K103R, E104K, T107K
notes: also called D7 mutein
[8]
  koff: 5.37e-05 s⁻¹
  kon: 1.77e+07 M⁻¹ s⁻¹
[9]
  Kd: 4.1 µM
[4]
  KDwt/KD mut: 940
[5]
  Kd: 0.003 nM
[6]
  fold stronger affinity for IL13Rα2 relative to IL13Rα1: 1.4e+06 fold
[10]
  Kd: 4.1 µM
[11]
  koff: 5.37e-05 s⁻¹
  kon: 1.77e+07 M⁻¹ s⁻¹
